Measurements published in the DeepSol protein solubility set.

test: soluble on expression in E. coli; label from the status in PepcDB or PDB records

Soluble on expression in E. coli, soluble:
MAKGVAVLSSSEGVAGTILFTQEGDGPTTVTGNISGLKPGLHGFHVHALGDTTNGCMSTGPHFNPAGKEHGSPEDETRHAGDLGNITVGDDGTACFTIVDKQIPLTGPHSIIGRAVVVHADPDDLGKGGHELSKSTGNAGGRIACGIIGLQG, MAKIGLFFGSDTGTTRKIAKQIKDMFDDEVMAKPLNVNRADVADFMAYDFLILGTPTLGDGQLPGLSANAASESWEEFLPRIADQDFSGKTIALFGLGDQVTYPLEFVNALFFLHEFFSDRGANVVGRWPAKGYGFEDSLAVVEGEFLGLALDQDNQAALTPERLKGWLSLIAADFGLVLPA, MAKITEENYVSLEDLMQLLNSSESTIRRDLGELEQEGRLHRVHGGAELFHSLQEELSNQEKSVKNSHIKKAIAQRASQLIYDNDVIFIDAGTTTEFLLPFLQAKNLTVVTNSIHHAARLVELSIETIIVGGYVKQTTDASIGNVALEQIRQMNFDKAFLGMNGVDDSYLTTPDMEEAVIKKAVLSNAKLAYILVDGTKIGQVSFVKVAPINDVTIITLGGSASILKQIKEKAKVIEL, MAKLRVGIVFGGKSAEHEVSLQSAKNIVDAIDKTRFDVVLLGIDKAGQWHVNDAENYLQNADDPAHIALRPSAISLAQVPGKHQHQLINAQNGQPLPTVDVIFPIVHGTLGEDGSLQGMLRVANLPFVGSDVLSSAACMDKDVAKRLLRDAGLNIAPFITLTRTNRHAFSFAEVESRLGLPLFVKPANQGSSVGVSKVANEAQYQQAVALAFEFDHKVVVEQGIKGREIECAVLGNDNPQASTCGEIVLNSEFYAYDTKYIDDNGAQVVVPAQIPSEVNDKIRAIAIQAYQTLGCAGMARVDVFLTADNEVVINEINTLPGFTNISMYPKLWQASGLGYTDLISRLIELALERHTANNALKTTM, MAKLSGSIDVPLPPEEAWMHASDLTRYREWLTIHKVWRSKLPEVLEKGTVVESYVEVKGMPNRIKWTIVRYKPPEGMTLNGDGVGGVKVKLIAKVAPKEHGSVVSFDVHLGGPALLGPIGMIVAAALRADIRESLQNFVTVFAG, MAKLYFYYSTMNAGKSTTLLQSSYNYRERDMNTLVYTAAIDDRFGVGKVTSRIGISQDAFLFRSETNLFDEINEHLKKEKVHCVLVDEAQFLSKQQVYQLSDVVDKLKIPVLCYGLRTDFQAELFEGSKYLLAWADQLEELKTICYCGRKANFVLRLNDQGEVIKEGAQIQIGGNDSYLSVCRLHYKEKCGQILEHHHHHH, MAKRKAEDTQSDKMATAEKVAQNDYTIGLVDPVKDYQKLIETRVQVDEIVDDDVTKENFDRTAAAARDVIWRLLFDEAGTSQSNTEKASQLLEEYRGDACFYDPTPYNEWIVKLRDEVLKKELLDFWRDVLVKKQLGPCWSRDSDLFDSDDTPPLEFYAHAGCTAPFAASLKVRAALEEQASLDQDGPATPTTPGELSADDAAALSGEFEATLTKENPLEEYRTLMKRFVLTKIIVPDSVHQASVKKIAAAAREIIWKLLFDGTPSAEDQNKAAELLQEYKGDAGFYGPDDYNSWIFNLRDEVLTKELLDFWRDKMVKMELGPSCARDSDYYDNEDPLPFEFYEKAGCKAPFEGPVNDD, MAKSLLFITSFLKPRYNKPIMEKNWNVGTKYLNDKTRIIVVGITGREASQVVTESEALYPGFIKVGVTPGKGGTEVAGVPVFNTVKEALSSPEGKDVNTGLVYVPPASVKDAVIELIDAGIKLIYIVTEHVPIRDTVYFYHYAKERGVTIVGPTSLGCIVPRIPARIGAIGGKNPSIAYADGGLVILSKSGGLTTTTAEMFKRRGWGVYMALALGGDVISCTTFADVLEEIADDPNVKGVVIQGEVGGTYEEQAAETILRLYKEGRWNKPVAAFVAGKFQEKMEGVSFGHAGAIVERGKGKATDKIRMFNEVGKETGLVKVAEFYHDLVNCIEELGVPRDFEDSTPGGKVEPLYRTIDPETCEFKPQD, MAKSRTIYVCAECGGTSLKWQGKCPHCSAWNTLEETVESAAPSAGGHRYAPLAAASPVRSLSEIEARETPRQPTGLDEFDRVLGGGLVAGAVVLIGGDPGIGKSTLLLQALASLSATTKVLYVTGEESAEQVALRARRLGLQTGNVDLLAEIRLEAIQAAVSEQKPTVAVIDSIQTLYSGELTAAPGSVSQVRECAAQLTRLAKQTGIAIVMIGHVTKDGALAGPRVLEHIVDTVLYFEGDTHSSFRLVRAFKNRFGAVNELGVFAMTDRGLRGVANPSALFLSQHQQQVAGSCVLATQEGTRPLLVEVQALVDTSHAPNPRRLTVGLEGNRLAMLLAVMHRHAGVSTYDQDVFVNAVGGVRITEPAADLPVLLAIMSSLRDKPLPAGLVAFGEIGLAGEIRPAPRGQERLREAAKLGFSVALIPKANAPRQPIEGLEIWAVDRLDAALDKLRLEHHHHHH

Soluble on expression in E. coli, not soluble:
MAKEKEKLFSEFPPVSREAWIDKITADLKGVPFEKKLVWRTNEGFNVNPFYRREDIEDLKTTTSLPDEYPYVRSTRMHNEWLVRQDIVVGDNVAEANEKALDLLNKGVDSLGFYLKKVHINVDTLAALLKDIELTAVELNFNCCITRAADLLSAFSAYVKKVGADPNKCHGSVSYDPFKKQLVRGVSNPDWVKMTLPVMDAARELPAFRVLNVNAVNLSDAGAFITQELGYALAWGAELLDKLTDAGYKPEEIASRIKFNFGIGSNYFMEIAKFRAARWLWAQIVGSYGDQYKNETAKIHQHATTSMWNKTVFDAHVNLLRTQTETMSAAIAGVDSITVLPFDVTYQQSDDFSERIARNQQLLLKEECHFDKVIDPSAGSYYIETLTNSIGEEAWKLFLSVEDAGGFTQAAETASIQKAVNASNIKRHQSVATRREIFLGTNQFPNFTEVAGDKITLAQGEHDCNCVKSIEPLNFSRGASEFEALRLATEKSGKTPVVFMLTIGNLAMRLARSQFSSNFFGCAGYKLIDNLGFKSVEEGVDAALAAKADIVVLCSSDDEYAEYAPAAFDYLAGRAEFVVAGAPACMADLEAKGIRNYVHVKSNVLETLRAFNDKFGIR, MAKFTVGQDPVKGLTELKAYMEEQISKIKKATSEQEIDQLLVEVLNEYDDKMGSLSKIYKGGNEQVEQLKIDVRKLYEPLRDQFSYNHPQTLVGEFQTKLEEQHKRAEEEKRKLEKQREEQLKLEKQLEEEKQKLAKQSEVEEKPKLENQQEENITQALQKVDGIIQELTLKIDRVDQHQYKKAHDTANTLLQSLIAARDEYERDLRANEFSQELAGRKFKLACQDAVKIAKPVLEKDLGWGDYLKNLLKCLGNAVITVFTFGYQQGFFAYARPDSAKAVEKAEEDLGLRQAASSPK, MAKIAAIFQLLDKNVTVSSHRLELLSPARDAAIAREAILHGADAVYIGGPGFGARHNASNSLKDIAELVPFAHRYGAKIFVTLNTILHDDELEPAQRLITDLYQTGVDALIVQDMGILELDIPPIELHASTQCDIRTVEKAKFLSDVGFTQIVLARELNLDQIRAIHQATDATIEFFIHGALCVAYSGQCYISHAQTGRSANRGDCSQACRLPYTLKDDQGRVVSYEKHLLSMKDNDQTANLGALIDAGVRSFKIEGRYKDMSYVKNITAHYRQMLDAIIEERGDLARASSGRTEHFFVPSTEKTFHRGSTDYFVNARKGDIGAFDSPKFIGLPVGEVVKVAKDHLDVAVTEPLANGDGLNVLIKREVVGFRANTVEKTGENQYRVWPNEMPADLHKIRPHHPLNRNLDHNWQQALTKTSSERRVAVDIELGGWQEQLILTLTSEEGVSITHTLDGQFDEANNAEKAMNNLKDGLAKLGQTLYYARDVQINLPGALFVPNSLLNQFRREAADMLDAARLASYQRGSRKPVADPAPVYPQTHLSFLANVYNQKAREFYHRYGVQLIDAAYEAHEEKGEVPVMITKHCLRFAFNLCPKQAKGNIKSWKATPMQLVNGDEVLTLKFDCRPCEMHVIGKIKNHILKMPLPGSVVASVSPDELLKTLPKRKG, MAKKKDEITIRSSAAEYLTYVASVGDQQDSIEMRYEDENIWLTQKMMATLYDVDVRTINEHIKKIYSDSELEEDSTIRNFRIVQTEGSRQVTRDTKHYNLQMIIAVGFKVNSERAVQFRKWVNQIAKDYTIKGWVMDDERLKRGTYLTEKYFDEQLERIREIRASERKFYQKITDLYATAIDYDKNAAMTRRFYSTVQNKMHYAVHGHTAAELIVERADHTKEHMGLTTWEDAPEGKIKKSDVTVAKNYLSQDEMKQLNRMVTAYLDFAENMTLRHIPLTMQDWEKRLNSFIEMFDYGILQDAGKVSAEIAKLHAETEFEKYRVIQDRLFMSDFDKFMLELEENTKK, MAKLGPAGYSPYPVAVTEGVLTPPPGKALMFNEIVDEEIAMREAAKAMLTRDNPTIFPGPQVLYAWNEEAKEKAKLVRKMAEVLGAKIIPMYDYRPKYPKIDPEKEINPNHPNLTIWHNKIKACIFIGVHCHYANVALKIIRAETDCFTIAMCSMAGHEDAMITLRDQHVEDLEKFIKIAEEVKKELGK, MAKPSFSCSACGASFTKWSGRCEGCGDWNTISQDAGLSAGPAKKSLGAKRGRAVTLTDLASEEAPPPRAMSGIGELDRVLGGGLVPASAILVGGDPGIGKSTLLLQAVAAFARKGLKTLYVSGEEASAQVRMRARRLGLADAPVQLAAETNLRDILTTLEAEKPGLVIIDSIQTMWADNVDSAPGSVSQVRASAHELTTFAKRTGISVIMVGHVTKDGQIAGPRVVEHMVDTVLYFEGERGHQFRILRSVKNRFGAADEIGVFEMTGAGLAEVTNPSALFLSERGAPSPGSVVFAGIEGTRPVLVELQALVAPSPHSQPRRTVVGWDGGRLAMILAVLEARCGIPFAGLDVYLNVAGGLKISEPAADLAVAAALLSAREDRALPGDTVIFGEISLSGALRPASQTENRLKEAQKLGFTSAIAPAGGKTGTLEGLTMTRPTDLVGFVGEFFGAGLEHHHHHH, MAKRKICQAMAVVLALGMCTTGLTGCGNEKRADGKTEIEVVSYKPEAVKAFEKIEKQFNETHDDIHLTISSPNEAMTILKTRFIREDYPDIIAIGGDINYSNFLDADLFEDISDLDAVDNVKEAYLDMDKELEFIPKDGTYALPYAANAAGVLYNKDMFAENGWKVPTTWSEFTALCDEIKESGTLPLYLGFKDTWTCLAPWNALAVGLCDSDTCNQVNMGNTTFEEAYSPVADKIRTLLDYAEDNPYAYSYNDACTAFARGESAMYTIGSYAIPQIKSVNPDMNIGSFTFPANDNEADNVLNSGIDLQLSVMKACKNKEAAYEVLEYLYSDETIQTYLDDQGGIACKEGDFAIPDTLEDMQEYIKDNRMSDYQDHHYPSEMSVDAMIQTYLLDTGDNAKEKFLKKFDSDWERYNRDLIREVQDYQKEQEDAK, MAKSTVRYVCSACGAVSLKYQGRCFECQSWGTLVETHLEEPDAKVRKKRPAGSMPEVQNLDDDAPSGFHRTLTGIGELDRVLGGGLMEASAILVGGEPGIGKSTLMLQLVPRLAGKKVLYVAGEESPNQIRERARRLSIKAPNLRLVSEVALERILDAIANEQPEMVIVDSIQTVYSSDYQSSAGTITQIRECAASLIRAAKEQNFILLIIGHITKEGSLAGPKALEHMVDTVVQFEGENYQRYRIIRSVKNRFGPTNEIGVFKMGEEGLTEVSNPSEFFISDRRTDVPGTAVLAGIEGSRALMVEVQALVSRTGYSMPQRISTGFDLKRIAIILAVLEKRLQFQTAGQDVFVKIAGGLKLVEPAADLAIAAAVASGLQDKPCNPTACCCGEIGLSGELRAISDGERRIREAVHLGFTSIVLPESNTRELKPSLKKLPIRIAGCRTLHEALEAMGV
